Measurements from IntAct's records for PubMed 18432193.

B1: Protein draper (Drosophila melanogaster (Fruit fly)), Q9W0A0 (parent)
chain: MLPVILIACLAQLVLAQADLKDLDGPNICKRRELYNVDVVYTELQSFQERGSTWCVTFPPRCSTYRIKHRVVNKTKTIAKNRIVRDCCDGYIASAGECVPHCSEPCQHGRCISPEKCKCDHGYGGPACDINCPPGWYGRNCSMQCDCLNNAVCEPFSGDCECAKGYTGARCADICPEGFFGANCSEKCRCENGGKCHHVSGECQCAPGFTGPLCDMRCPDGKHGAQCQQDCPCQNDGKCQPETGACMCNPGWTGDVCANKCPVGSYGPGCQESCECYKGAPCHHITGQCECPPGYRGERCFDECQLNTYGFNCSMTCDCANDAMCDRANGTCICNPGWTGAKCAERICEANKYGLDCNRTCECDMEHTDLCHPETGNCQCSIGWSSAQCTRPCTFLRYGPNCELTCNCKNGAKCSPVNGTCLCAPGWRGPTCEESCEPGTFGQDCALRCDCQNGAKCEPETGQCLCTAGWKNIKCDRPCDLNHFGQDCAKVCDCHNNAACNPQNGSCTCAAGWTGERCERKCDTGKFGHDCAQKCQCDFNNSLACDATNGRCVCKQDWGGVHCETNCRSGYYGENCDKVCRCLNNSSCDPDSGNCICSAGWTGADCAEPCPPGFYGMECKERCPEILHGNKSCDHITGEILCRTGYIGLTCEHPCPAGLYGPGCKLKCNCEHGGECNHVTGQCQCLPGWTGSNCNESCPTDTYGQGCAQRCRCVHHKVCRKADGMCICETGWSGTRCDEVCPEGFYGEHCMNTCACPSANFQCHAAHGCVCRSGYTGDNCDELIASQRIADQSENSSRASVALTLVLMTLFACIIFAVFIYYRRRVSNLKTEIAHVHYTHDTNPPSWPPNHNFDNPVYGMQAETRLLPNNMRSKMNNFDQRSTMSTDYGDDCNASGRVGSYSINYNHDLLTKNLNADRTNPIVYNESLKEEHVYDEIKHKEGYKDPDEYDHLDYSRPSTSQKPHYHRMNDAMLNINQDEEKPSNVKNMTVLLNKPLPPTEPEPQHECFDNTNTNLDNVSTASPSSSPKFLK
partner: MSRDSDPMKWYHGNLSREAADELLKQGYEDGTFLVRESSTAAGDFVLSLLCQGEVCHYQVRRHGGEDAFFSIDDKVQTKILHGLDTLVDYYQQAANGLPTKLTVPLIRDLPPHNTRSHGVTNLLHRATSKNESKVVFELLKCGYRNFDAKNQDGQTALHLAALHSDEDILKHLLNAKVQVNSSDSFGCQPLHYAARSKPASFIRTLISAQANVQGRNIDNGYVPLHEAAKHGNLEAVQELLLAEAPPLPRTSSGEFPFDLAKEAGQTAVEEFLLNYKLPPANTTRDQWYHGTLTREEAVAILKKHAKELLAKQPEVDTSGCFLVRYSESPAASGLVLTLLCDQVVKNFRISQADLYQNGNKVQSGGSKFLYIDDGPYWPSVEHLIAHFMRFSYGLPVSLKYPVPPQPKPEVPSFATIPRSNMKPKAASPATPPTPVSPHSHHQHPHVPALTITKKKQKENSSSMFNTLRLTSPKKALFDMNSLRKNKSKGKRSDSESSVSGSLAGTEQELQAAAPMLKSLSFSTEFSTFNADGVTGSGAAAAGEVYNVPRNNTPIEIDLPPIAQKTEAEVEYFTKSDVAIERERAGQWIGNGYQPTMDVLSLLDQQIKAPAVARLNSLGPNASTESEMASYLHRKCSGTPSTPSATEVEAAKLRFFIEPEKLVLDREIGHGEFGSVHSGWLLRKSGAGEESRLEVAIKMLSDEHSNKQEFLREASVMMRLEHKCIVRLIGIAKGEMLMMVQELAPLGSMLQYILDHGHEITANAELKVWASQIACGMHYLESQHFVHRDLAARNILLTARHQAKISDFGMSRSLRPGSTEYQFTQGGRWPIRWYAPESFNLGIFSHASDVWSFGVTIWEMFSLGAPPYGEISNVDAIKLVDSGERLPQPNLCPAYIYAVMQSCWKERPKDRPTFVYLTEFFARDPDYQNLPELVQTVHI

Variants of: B1
Settings: with shark_drome Shark

effect of a mutation on the interaction	Variant
decreasing interaction	Y934F
disrupting interaction	Y949F

Variants of: B1
Settings: with shark_drome Shark
Remark: another data set of the same source

effect of a mutation on the interaction	Variant
decreasing interaction	Y949F
